Measured values as given in the supplement of paper PMC10899765.

Tests used:
Details in all cases: 20 nM; 72 h
[1] = test system: MCF10A; test: percent viability (nuclei count relative to siNT); higher = more viable cells
Experimental: (§1)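 After 72 h, cells were fixed and stained with Hoechst and anti-fibrillarin, and nucleoli per nucleus were counted with CellProfiler. Values are plate-adjusted percent effect for the one-nucleolus and 5+ nucleoli phenotypes, normalised to siNT (0%) and to the positive controls siNOL11 or siKIF11 (100%), as the mean of biological triplicates. Percent viability is the nuclei count relative to siNT.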

[2] = test system: MCF10A; test: 5+ nucleoli phenotype percent effect (relative to siNT 0% and siKIF11 100%); higher = more cells with five or more nucleoli
Experimental: as §1

[3] = test system: MCF10A; test: one-nucleolus phenotype percent effect (relative to siNT 0% and siNOL11 100%); higher = more cells with one nucleolus (ribosome biogenesis inhibition)
Experimental: as §1

UGGUAGACUAUGGAACGUAGG [hsa-miR-379-5p]
percent viability [1]: 31%
5+ nucleoli phenotype percent effect [2]: -21.8%
one-nucleolus phenotype percent effect [3]: 12.4%

GAUGCGCCGCCCACUGCCCCGCGC [hsa-miR-4787-3p]
percent viability [1]: 76.2%
5+ nucleoli phenotype percent effect [2]: 33.1%
one-nucleolus phenotype percent effect [3]: -16.2%

CAAAAACUGCAAUUACUUUUGC [hsa-miR-548aq-3p]
percent viability [1]: 115%
5+ nucleoli phenotype percent effect [2]: 13.8%
one-nucleolus phenotype percent effect [3]: -26.6%

UAGUUCUUCCCUUUGCCCAAUU [hsa-miR-5584-3p]
percent viability [1]: 32.6%
5+ nucleoli phenotype percent effect [2]: -41%
one-nucleolus phenotype percent effect [3]: 5.26%

CUGGACUGAGCCAUGCUACUGG [hsa-miR-1269b]
percent viability [1]: 60.9%
5+ nucleoli phenotype percent effect [2]: 18.3%
one-nucleolus phenotype percent effect [3]: 2.22%

GUGGACCAGGAUGGCAAGGGCU [hsa-miR-4776-5p]
percent viability [1]: 77.7%
5+ nucleoli phenotype percent effect [2]: 14.5%
one-nucleolus phenotype percent effect [3]: -5.58%

UGGGCUCAGGGUACAAAGGUU [hsa-miR-4437]
percent viability [1]: 24.3%
5+ nucleoli phenotype percent effect [2]: -5.83%
one-nucleolus phenotype percent effect [3]: 28.8%

CUACCCUCGGUCUGCUUACCACA [hsa-miR-7848-3p]
percent viability [1]: 41.7%
5+ nucleoli phenotype percent effect [2]: -35.7%
one-nucleolus phenotype percent effect [3]: 25.5%

CUGCCUGUUCUUCCACUCCAG [hsa-miR-6514-3p]
percent viability [1]: 9.75%
5+ nucleoli phenotype percent effect [2]: -62.1%
one-nucleolus phenotype percent effect [3]: 59.9%

UGACCUGGGACUCGGACAGCUG [hsa-miR-3661]
percent viability [1]: 31.7%
5+ nucleoli phenotype percent effect [2]: -25.2%
one-nucleolus phenotype percent effect [3]: 35.2%

CACUGGCUCCUUUCUGGGUAGA [hsa-miR-892b]
percent viability [1]: 25.4%
5+ nucleoli phenotype percent effect [2]: -22.8%
one-nucleolus phenotype percent effect [3]: 27.6%

CACAGCAAGUGUAGACAGGCA [hsa-miR-3120-3p]
percent viability [1]: 51.8%
5+ nucleoli phenotype percent effect [2]: 22.9%
one-nucleolus phenotype percent effect [3]: -20.3%

GCAGGUGCUCACUUGUCCUCCU [hsa-miR-764]
percent viability [1]: 23.9%
5+ nucleoli phenotype percent effect [2]: -23.5%
one-nucleolus phenotype percent effect [3]: 49.3%

GUGGUUAUCCCUGCUGUGUUCG [hsa-miR-487a-5p]
percent viability [1]: 42%
5+ nucleoli phenotype percent effect [2]: 24.8%
one-nucleolus phenotype percent effect [3]: -14.4%

AACCCAGUGGGCUAUGGAAAUG [hsa-miR-4482-5p]
percent viability [1]: 24.6%
5+ nucleoli phenotype percent effect [2]: -41%
one-nucleolus phenotype percent effect [3]: 59.8%

GCCCCGGCGCGGGCGGGUUCUGG [hsa-miR-4707-5p]
percent viability [1]: 116%
5+ nucleoli phenotype percent effect [2]: 42.2%
one-nucleolus phenotype percent effect [3]: -25%

GCGGGGCUGGGCGCGCG [hsa-miR-4508]
percent viability [1]: 90.5%
5+ nucleoli phenotype percent effect [2]: 29.5%
one-nucleolus phenotype percent effect [3]: -26.4%

AGAAGGAAAUUGAAUUCAUUUA [hsa-miR-1252]
percent viability [1]: 148%
5+ nucleoli phenotype percent effect [2]: 32.3%
one-nucleolus phenotype percent effect [3]: -13.6%

GUCCCUCUCCAAAUGUGUCUUG [hsa-miR-642a-5p]
percent viability [1]: 120%
5+ nucleoli phenotype percent effect [2]: 55.6%
one-nucleolus phenotype percent effect [3]: -27.9%

CCAAGGAAGGAGGCUGGACAUC [hsa-miR-6830-5p]
percent viability [1]: 47.1%
5+ nucleoli phenotype percent effect [2]: -10.3%
one-nucleolus phenotype percent effect [3]: 13.3%

UGGGCGAGGGCGGCUGAGCGGC [hsa-miR-6729-5p]
percent viability [1]: 29%
5+ nucleoli phenotype percent effect [2]: -3.58%
one-nucleolus phenotype percent effect [3]: 6.3%

UUAACUCCUUUCACACCCAUGG [hsa-miR-4764-3p]
percent viability [1]: 91.4%
5+ nucleoli phenotype percent effect [2]: 15.3%
one-nucleolus phenotype percent effect [3]: -18%

AGGAGGGAAGGGGCUGAGAACAGGA [hsa-miR-6797-5p]
percent viability [1]: 80.7%
5+ nucleoli phenotype percent effect [2]: 33.9%
one-nucleolus phenotype percent effect [3]: -10.1%

GUGGGUUGGGGCGGGCUCUG [hsa-miR-3940-5p]
percent viability [1]: 52.7%
5+ nucleoli phenotype percent effect [2]: -4.07%
one-nucleolus phenotype percent effect [3]: -5.1%

CUGGGAGGUGUGAUAUUGUGGU [hsa-miR-3689c]
percent viability [1]: 9.66%
5+ nucleoli phenotype percent effect [2]: -32.9%
one-nucleolus phenotype percent effect [3]: 44%

UUCAAGUAAUCCAGGAUAGGCU [hsa-miR-26a-5p]
percent viability [1]: 103%
5+ nucleoli phenotype percent effect [2]: 17.8%
one-nucleolus phenotype percent effect [3]: -6.05%

CGCAGACAAUGCCUACUGGCCUA [hsa-miR-3166]
percent viability [1]: 21.3%
5+ nucleoli phenotype percent effect [2]: -21.5%
one-nucleolus phenotype percent effect [3]: 6.38%

CUCAAGUAGUCUGACCAGGGGA [hsa-miR-4465]
percent viability [1]: 67%
5+ nucleoli phenotype percent effect [2]: 21.6%
one-nucleolus phenotype percent effect [3]: -5.88%

UUCUCCAAAAGGGAGCACUUUC [hsa-miR-519e-5p]
percent viability [1]: 39.5%
5+ nucleoli phenotype percent effect [2]: 4.42%
one-nucleolus phenotype percent effect [3]: -3.64%

UGCUUCCUUUCAGAGGGU [hsa-miR-516b-3p]
percent viability [1]: 78.4%
5+ nucleoli phenotype percent effect [2]: -29.9%
one-nucleolus phenotype percent effect [3]: 8.29%

AACCCGUAGAUCCGAUCUUGUG [hsa-miR-99a-5p]
percent viability [1]: 48.2%
5+ nucleoli phenotype percent effect [2]: 1.63%
one-nucleolus phenotype percent effect [3]: 7.7%

UACCCUGUAGAACCGAAUUUGUG [hsa-miR-10b-5p]
percent viability [1]: 30.6%
5+ nucleoli phenotype percent effect [2]: -26.1%
one-nucleolus phenotype percent effect [3]: 25.8%

CCCUCAUCUUCCCCUCCUUUC [hsa-miR-6891-3p]
percent viability [1]: 35.9%
5+ nucleoli phenotype percent effect [2]: -10.8%
one-nucleolus phenotype percent effect [3]: 36.8%

AAAGACAUAGGAUAGAGUCACCUC [hsa-miR-641]
percent viability [1]: 213%
5+ nucleoli phenotype percent effect [2]: 1.49%
one-nucleolus phenotype percent effect [3]: -15.4%

AAAAGUAACUAUGGUUUUUGCC [hsa-miR-548bb-5p]
percent viability [1]: 138%
5+ nucleoli phenotype percent effect [2]: 30.8%
one-nucleolus phenotype percent effect [3]: -28.8%

AAUGAGAGACCUGUACUGUAU [hsa-miR-4712-3p]
percent viability [1]: 7.13%
5+ nucleoli phenotype percent effect [2]: -22.6%
one-nucleolus phenotype percent effect [3]: 34.8%

GUUCCUGCUGAACUGAGCCAG [hsa-miR-3074-5p]
percent viability [1]: 42.2%
5+ nucleoli phenotype percent effect [2]: -17.7%
one-nucleolus phenotype percent effect [3]: -7.07%

AGCUUCUUUACAGUGCUGCCUUG [hsa-miR-103a-2-5p]
percent viability [1]: 36.7%
5+ nucleoli phenotype percent effect [2]: -36.6%
one-nucleolus phenotype percent effect [3]: 7.49%

CAAAACCGCGAUUACUCUUGCA [hsa-miR-548ay-3p]
percent viability [1]: 25.8%
5+ nucleoli phenotype percent effect [2]: -63.9%
one-nucleolus phenotype percent effect [3]: 52%

GGAUGGUUGGGGGCGGUCGGCGU [hsa-miR-8069]
percent viability [1]: 33.5%
5+ nucleoli phenotype percent effect [2]: -16.7%
one-nucleolus phenotype percent effect [3]: 28.5%

UGGGAUGAGGGAUUGAAGUGGA [hsa-miR-5187-5p]
percent viability [1]: 25.8%
5+ nucleoli phenotype percent effect [2]: 24.8%
one-nucleolus phenotype percent effect [3]: -17.7%

AAAGUGCAUCCUUUUAGAGGUU [hsa-miR-519b-3p]
percent viability [1]: 104%
5+ nucleoli phenotype percent effect [2]: 75.9%
one-nucleolus phenotype percent effect [3]: -24%

CCCUUCCCUCACUCUUCUCUCAG [hsa-miR-6734-3p]
percent viability [1]: 44.4%
5+ nucleoli phenotype percent effect [2]: 13.3%
one-nucleolus phenotype percent effect [3]: -3.15%

UGAGGAUAUGGCAGGGAAGGGGA [hsa-miR-3679-5p]
percent viability [1]: 100%
5+ nucleoli phenotype percent effect [2]: 29.7%
one-nucleolus phenotype percent effect [3]: -24.2%

UUGUGAAGAAAGAAAUUCUUA [hsa-miR-3611]
percent viability [1]: 53.1%
5+ nucleoli phenotype percent effect [2]: -15.1%
one-nucleolus phenotype percent effect [3]: 12.5%

UCAGCACCAGGAUAUUGUUGGAG [hsa-miR-3065-3p]
percent viability [1]: 67.2%
5+ nucleoli phenotype percent effect [2]: 62.3%
one-nucleolus phenotype percent effect [3]: -25.2%

CAGGGCUCAGGGAUUGGAUGGAGG [hsa-miR-5088-5p]
percent viability [1]: 86.9%
5+ nucleoli phenotype percent effect [2]: 15.2%
one-nucleolus phenotype percent effect [3]: -17.9%

AACAUUCAACGCUGUCGGUGAGU [hsa-miR-181a-5p]
percent viability [1]: 76.4%
5+ nucleoli phenotype percent effect [2]: 0.638%
one-nucleolus phenotype percent effect [3]: 2.31%

CCUGACCCACCCCCUCCCGCAG [hsa-miR-4750-3p]
percent viability [1]: 95.7%
5+ nucleoli phenotype percent effect [2]: 40.4%
one-nucleolus phenotype percent effect [3]: -19.1%

UGGGGACGUAGCUGGCCAGACAG [hsa-miR-3191-3p]
percent viability [1]: 26.7%
5+ nucleoli phenotype percent effect [2]: 4.11%
one-nucleolus phenotype percent effect [3]: 32.8%

UUGUGGAUCUCAAGGAUGUGCU [hsa-miR-4752]
percent viability [1]: 31.5%
5+ nucleoli phenotype percent effect [2]: -34.7%
one-nucleolus phenotype percent effect [3]: 43.7%

AUUGAAACCUCUAAGAGUGGA [hsa-miR-510-3p]
percent viability [1]: 41.7%
5+ nucleoli phenotype percent effect [2]: 8.91%
one-nucleolus phenotype percent effect [3]: -2.4%

CCUAGUAGGUGUCCAGUAAGUGU [hsa-miR-325]
percent viability [1]: 58%
5+ nucleoli phenotype percent effect [2]: 25%
one-nucleolus phenotype percent effect [3]: -12.1%

CUCUCACCACUGCCCUCCCACAG [hsa-miR-1229-3p]
percent viability [1]: 75.8%
5+ nucleoli phenotype percent effect [2]: 24.9%
one-nucleolus phenotype percent effect [3]: -20.5%

CUGGACUGAGCCGUGCUACUGG [hsa-miR-1269a]
percent viability [1]: 52.7%
5+ nucleoli phenotype percent effect [2]: -26.1%
one-nucleolus phenotype percent effect [3]: 6.41%

UGUGCUUGCUCGUCCCGCCCGCA [hsa-miR-636]
percent viability [1]: 111%
5+ nucleoli phenotype percent effect [2]: -6.7%
one-nucleolus phenotype percent effect [3]: 5.25%

CAAAGUGAUGAGUAAUACUGGCUG [hsa-miR-3609]
percent viability [1]: 98.3%
5+ nucleoli phenotype percent effect [2]: 2.01%
one-nucleolus phenotype percent effect [3]: -12.6%

AGGGUGUUUCUCUCAUCUCU [hsa-miR-609]
percent viability [1]: 74%
5+ nucleoli phenotype percent effect [2]: 53.7%
one-nucleolus phenotype percent effect [3]: -18.6%

CAUCAGAAUUCAUGGAGGCUAG [hsa-miR-2115-3p]
percent viability [1]: 39%
5+ nucleoli phenotype percent effect [2]: -5.23%
one-nucleolus phenotype percent effect [3]: 15.3%
